In patent publication US20090197263, “Compare-MS: Method Rapid, Sensitive and Accurate Detection of DNA Methylation” (published 2009):

Columns and labels:
[1] = molecular target: T1, MBD2-MBD (methyl-binding domain of MBD2) (Homo sapiens, UniProt Q9UBB5 Q9UBB5:145-213); assay: FP; 10 nM hairpin; 50 mM NaCl, 1 mM MgCl2, 10 mM Tris pH 7.4, room temp; text gives 2 or 3 sites as 156 and 222 nM respectively but cites FIGS. 2A (three pairs) and; conditions: tags: C-terminal 6xHis (pFBC6H baculovirus vector, Sf9), label: 5'-6FAM
T1 sequence (Q9UBB5 145-213, one chain of several): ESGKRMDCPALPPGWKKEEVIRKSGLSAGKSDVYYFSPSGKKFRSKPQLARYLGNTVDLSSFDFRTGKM
Protocol: (§1) 10 nM of annealed, fluorescently-labeled hairpin oligonucleotides with the sequence 5′-6FAM-[…]-3′ (SEQ ID NO:4) with no methylated CpGs (unmethylated hairpin), 2 methylated CpGs at the 2nd and 5th CpGs from the 5′ end (1 symmetrically methylated CpG hairpin), 3 methylated CpGs toward the 3′ end (3 asymmetrically methylated CpG hairpin), 4 methylated CpGs at the 1st, 2nd, 5th, and 6th CpGs from the 5′ end (2 symmetrically methylated CpG hairpin), or 6 methylated CpGs (3 symmetrically methylated CpG hairpin) were incubated with various concentrations of recombinant MBD2-MBD in a 50 μL reaction volume containing 4% glycerol, 1 mM MgCl₂, 0.5 mM EDTA, 0.5 mM DTT, 50 mM NaCl, 10 mM Tris-HCl (pH 7.4), 0.2% Tween-20 for 1 hour at room temperature with gentle shaking. Fluorescence polarization measurements were taken in triplicate using a Beckman Coulter DTX 880 Multimode Detector as described previously (Lee et al., (2005), supra). Briefly, fluorescence anisotropies (r) were calculated as
(§2) 6His-tagged methyl-binding domain of human MBD2 (MBD2-MBD) was expressed in Sf9 insect cells using a baculoviral expression system and purified using Ni-NTA Superflow beads (Qiagen, Valencia, Calif.). The affinities of MBD2-MBD for fluorescently labeled hairpin oligonucleotides containing various configurations of CpG methylation were then determined by fluorescence polarization (FIG. 2). […]

[2] = molecular target: T1, MBD2-MBD (methyl-binding domain of MBD2); assay: FP; 10 nM hairpin; 50 mM NaCl, 1 mM MgCl2, 10 mM Tris pH 7.4, room temp; conditions: tags: C-terminal 6xHis (pFBC6H baculovirus vector, Sf9), label: 5'-6FAM
Protocol: as §1, §2

Binder | EC50 [1] [nM] | EC50 [2] [nM]
ATCGTCGTACGTTTTCGTACGACGAT (structured_DNA, 5mC at 1st, 2nd, 5th and 6th CpGs from 5' end (C3, C6, C20, C23)) [2 symmetrically methylated CpG hairpin] | 156 | –
ATCGTCGTACGTTTTCGTACGACGAT (structured_DNA, 5mC at 2nd and 5th CpGs from 5' end (C6, C20)) [1 symmetrically methylated CpG hairpin] | – | 519
